Read-outs that look alike come from different tables or passages of the source.
B1: Vps35p (natural protein)
chain: MAYADSPENAIAVIKQRTALMNRCLSQHKLMESLQHTSIMLTELRNPNLSPKKYYELYVIIFDSLTNLSTYLIENHPQNHHLADLYELVQYTGNVVPRLYLMITVGTSYLTFNEAPKKEILKDMIEMCRGVQNPIRGLFLRYYLSQRTKELLPEDDPSFNSQFIMNNFIEMNKLWVRLQHQGPLRERETRTRERKELQILVGSQLVRLSQIIDDNFQMYKQDILPTILEQVIQCRDLVSQEYLLDVICQVFADEFHLKTLDTLLQTTLHLNPDVSINKIVLTLVDRLNDYVTRQLEDDPNATSTNAYLDMDVFGTFWDYLTVLNHERPDLSLQQFIPLVESVIVLSLKWYPNNFDNLNKLFELVLQKTKDYGQKNISLESEHLFLVLLSFQNSKLQLTSSTTAPPNSPVTSKKHFIFQLISQCQAYKNILALQSISLQKKVVNEIIDILMDREVEEMADNDSESKLHPPGHSAYLVIEDKLQVQRLLSICEPLIISRSGPPANVASSDTNVDEVFFNRHDEEESWILDPIQEKLAHLIHWIMNTTSRKQTMKNKIQFSLEAQLEILLLIKSSFIKGGINVKYTFPAIITNFWKLMRKCRMIQEYLLKKRPDNKTLLSHYSNLLKQMFKFVSRCINDIFNSCNNSCTDLILKLNLQCAILADQLQLNEISYDFFSQAFTIFEESLSDSKTQLQALIYIAQSLQKTRSLYKEAYYDSLIVRCTLHGSKLLKKQDQCRAVYLCSHLWWATEISNIGEEEGITDNFYRDGKRVLECLQRSLRVADSIMDNEQSCELMVEILNRCLYYFIHGDESETHISIKYINGLIELIKTNLKSLKLEDNSASMITNSISDLHITGENNVKASSNADDGSVITDKESNVAIGSDGTYIQLNTLNGSSTLIRGVVATASGSKLLHQLKYIPIHHFRRTCEYIESQREVDDRFKVIYV

Columns and labels:
Assay in all cases: cross-linking + co-IP
[1] = target: Vps35p (S. cerevisiae (endogenous in strain AHY63)) (UniProt P34110)
A-ALP (S. cerevisiae) [2] = target: A-ALP (S. cerevisiae)
A-ALP (S. cerevisiae) [3] = target: A-ALP (S. cerevisiae); remark: listed apart in the source
A-ALP (S. cerevisiae) [4] = target: A-ALP (S. cerevisiae); remark: listed apart in the source

Row | Molecule | percent of A-ALP immunoprecipitated by anti-Vps35p after cross-linking [1] | percent of total Vps35p cross-linked (A-ALP (S. cerevisiae) [2]) | percent of total Vps35p cross-linked (A-ALP (S. cerevisiae) [3]) | percent of total Vps35p cross-linked (A-ALP (S. cerevisiae) [4])
1 | A-ALP | 5% |  |  | 
2 | B1 |  | 16% | 10% | 26%
